Test system: MS2 coat protein
Assay: apparent KD of MS2 coat protein; designed switch direction (-1 OFF switch, 1 ON switch): 1; higher = weaker reporter binding
Procedure, shortened: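 Designed RNA switches sharing common flanks were transcribed on Illumina chips by stalled E. coli RNA polymerase. They were titrated with SNAP-549-labelled MS2 coat protein, from 0.7 or 1.5 nM doubling to 3 µM, in Tris-HCl pH 7.5 buffer with KCl, MgCl2, BSA, DTT, tRNA and Tween-20. Titrations ran without input, with 200 uM small-molecule ligand, or with an oligonucleotide input. The apparent KD of each design is the median over its clusters, after curve-fitting of normalised cluster fluorescence.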

[1] = input ligand: microRNA oligo, concentration not stated
[2] = Eterna round: R95, input ligand: FMN 200 uM
[3] = Eterna round: R95, input ligand: microRNA oligo, concentration not stated
[4] = Eterna round: R95, input ligand: none

Sequence	apparent KD of MS2 coat protein (input ligand: FMN 200 uM) [nM]	apparent KD of MS2 coat protein [1] [nM]	apparent KD of MS2 coat protein (input ligand: none) [nM]	apparent KD of MS2 coat protein [2] [nM]	apparent KD of MS2 coat protein [3] [nM]	apparent KD of MS2 coat protein [4] [nM]
GUAGCAUACCGAGGAUAUUCAUUAAACAUGAGGAUCACCCAUGUAAAUUAUAGGCGAAAGCCUUGGGAGAAGGCGGAAUGCUAC [Xeonanis - 20 Mod72] (Eterna round: R96, puzzle: Same State NG 2)	11	11.3	19.1	–	–	–
GGAAUGUGAUGUUACAUGAGGAUCACCCAUGUAGUGACAACUAAGGAUAUCUGAAAAGAAGGAGAGGAGAAGGUAGGAUCACAA [AK SSNG3-V2-15] (Eterna round: R96, puzzle: Same State NG 3)	30.8	39.2	58.9	–	–	–
AACGUGGGCUAGCAGGAUAUACUGCGAGUAACAUGAGGAUCACCCAUGUUGUCCCGCAAGACAAUGUAGAAGGGCUGAUACCGCG [Atatlaor] (puzzle: Same State 2)	–	–	–	18.1	28.4	26.5
ACAUGAGAGAAAGGAUAUCUUGUACCUACAUGUGACAUGAGGAUCACCCAUGUGGUAAGUAUGACGGAGAAGGUUCAGAUAUGU [Equivalance 72 - Jieux - Same State NG 2] (Eterna round: R96, puzzle: Same State NG 2)	77.1	125	154	–	–	–
GUGGCCCAGGCACAGGAUAUGUUUCUCGUAACAUGAGGAUCACCCAUGUGCCUAUGAGAUUUUAUGCAGAAGGGUGCACGCCACG [JL Atiinbe mod 01] (puzzle: Same State 2)	–	–	–	18.5	56	123
GCUAGGAUAUGACGAGGAUCACCCGUUAGAAGGAGCGAAGGCUAGGAUAUGACGAGGAUCACCCGUUAGAAGGAGCUGUACUCU [pwkr ssNG3 DX 2xF5 +2xFMN.10] (Eterna round: R96, puzzle: Same State NG 3)	188	64.9	80.3	–	–	–
CUGAGCAAUCAAGGAUAUCACGUCGAUUAGACGUGAGAAGGUGAUCAUAACAUGAGGAUCACCCAUGUAUUACAUGAAGCUCAG [SSNG1/1-A2] (Eterna round: R96, puzzle: Same State NG 1)	975	692	740	–	–	–
GCAGGACGGUAAAACAUCUCACAUGAGGAUCACCCAUGUUGUGAGGAUAUGGAUCCUAAUUGGAUCCAGAAGGCACGGUCCUGC [Fiskers NG3ss - 30] (Eterna round: R96, puzzle: Same State NG 3)	24.9	17.7	27.8	–	–	–
GCCAACGCAUGAGGAUAUGGCACCUUAUUGGUGCCAGAAGGCGUGUGUAUUCACAUGAGGAUCACCCAUGUAUUAUAGUUGGCA [Fiskers NG1ss - 16] (Eterna round: R96, puzzle: Same State NG 1)	24.1	169	189	–	–	–
UUUAGUUGCGGGCAGGAUAUGUGUUAAAAUACAUGAGGAUCACCCAUGUGCGGGUAUAACACCCGACAGAAGGGCCAAUCGCGAC [Laonerce - 2] (puzzle: Same State 2)	–	–	–	21.8	56.4	67.9
GCAGCACAUGAGGAUCACCCAUGUCUUCGGAGUCGAGGAUAUGGUCACUGUAAACAGUGGCCAGAAGGCGAGUUGC [SS1 - Son of Teenbexe v5] (puzzle: Same State 1)	–	–	–	–	24.3	–
CUUCGCGCCGCAGGAUAUGCCGACCCGUGUUGAGCAGAAGGGCGAGACAUGAGGAUCACCCAUGUCUAAAGAGCGCAUCAAUAA [Esedlaedbi] (Eterna round: R96, puzzle: Same State NG 1)	23.1	18.9	45.9	–	–	–
GUGCUCAUGUAAGGAUAUGCAGCCGUUUCGGCUGCAGAAGGUACUAUAAUACAUGAGGAUCACCCAUGUCUCUAUAAUUUGGUG [salish99_SSNG1_r04_903] (Eterna round: R96, puzzle: Same State NG 1)	–	76.5	–	–	–	–
GUUACAUGAGGAUCACCCAUGUAUGUGUGGGAGUAAGUGUCUUAGGAUAUCUAGUAGUUAAUUUAAGAGAAGGAAGAUUGUUGU [JMF's solution 55] (Eterna round: R96, puzzle: Same State NG 3)	145	81.9	104	–	–	–
AGAGAACAUGAGGAUCACCCAUGUAGGAUGGGCAUAGGAUAUAGAGGAAUGAGGGAGGAGCUAGAAGGAUGAUGGA [JR_SS1_Sub078] (puzzle: Same State 1)	–	–	–	110	192	145
CAGCACUGUCGAGAGGAUAUGCGGUGAUGGACAUGAGGAUCACCCAUGUUAGCGACAGCAUCACGGCAGAAGGCUCUGCUGCUGC [Soteed Omei mod 36] (puzzle: Same State 2)	–	–	–	–	47.7	–

Sequence	apparent KD of MS2 coat protein (input ligand: FMN 200 uM) [nM]	apparent KD of MS2 coat protein [1] [nM]	apparent KD of MS2 coat protein (input ligand: none) [nM]	apparent KD of MS2 coat protein [2] [nM]	apparent KD of MS2 coat protein [3] [nM]	apparent KD of MS2 coat protein [4] [nM]
AUGGUGCAGGUACAGGAUAUGUUGCUCGUAACAUGAGGAUCACCCAUGUACCUAUGAGAUUAAAUGCAGAAGGGUGCACACCACU [Mat - Same State 2 - Mod of UCT - D89] (puzzle: Same State 2)	–	–	–	77.1	613	158
GGAGCCGGCCUAGGAUAUUUCAUUAAAAUACAUGAGGAUCACCCAUGUAGGCCAGAAGGCCUUGGGAAGAAGGAGGUCGGCUCC [Loop Effect - U24,U29] (Eterna round: R96, puzzle: Same State NG 2)	9.56	17.6	23.1	–	–	–
UAGAAUCUAUCUCAGGAUAUCAUGUCAAAGACAUGAGGAUCACCCAUGUACCAGGAAACUGGUUAUGAGAAGGGAGAUAGAUUCA [Mat - Same State 2 - Mod - D34] (puzzle: Same State 2)	–	–	–	124	98.3	241
AGCCUGAGUCGAGGAUAUUAUGGAUCCUCUAAUACAUGAGGAUCACCCAUGUAAUUAAUUAUACAUGAGAAGGCGACUCAGGCA [SSNG2/12-A3] (Eterna round: R96, puzzle: Same State NG 2)	98.7	69.4	25.5	–	–	–
CGUCCGGCCUGAGCUGGACGGAGGCAUGUACAUGAGGAUCACCCAUGUUCAUGUGCAGGCUUUUUGCUCGUCUUGUG [JL-shm-2.07 JL mod] (Eterna round: R96, puzzle: Sensor for hsa-mir-208a)	62.8	10.6	57.8	–	–	–
GUGGUCAGACAUGAGGAUCACCCAUGUGGAAUAAAUAACAGACAGGAUAUGUAAUAUAAAAUAUAACAGAAGGGUCGAUUGGUG (Eterna round: R96, puzzle: Same State NG 3)	79.6	64.7	93.9	–	–	–
UGCUGUGUGGUAGGAUAUGUAGGAUAUGUACAUGAGGAUCACCCAUGUCAGUUAAUGACAGAAGGAUAGAAGGACCAGAGGGCU [pwkr ssNG2 2FMN 1F5s.3] (Eterna round: R96, puzzle: Same State NG 2)	254	205	249	–	–	–
GUUCCACAUGAGGAUCACCCAUGUCACGAACACGCAGGAUAUUGCCUGAGUUUGGACAGGUAAGAAGGGUGAGAGA [Dibeante] (puzzle: Same State 1)	–	–	–	64.3	31.9	28.9
UUUCCAUAGAUAGGAUAUCAGUUUACAUGAGGAUCACCCAUGUUCUCUUUGGUUUUAAUUUUUUCUGAGAAGGAUCUUGAUGAA [JR_SSNG2_Sub001] (Eterna round: R96, puzzle: Same State NG 2)	20.6	17.7	25.1	–	–	–
UCAAGCGUUUGGCUCGUUUUAUGUUUUGUACAUGAGGAUCACCCAUGUUUUGUACGAUCCAGUUAGAUGGUAUUUUG [JR_SHM208A_Sub039] (puzzle: Sensor for hsa-mir-208a)	–	–	–	39.6	93	56.8
AGUCCAGCCUGAGCUGGACAAAAGCAUGUACAUGAGGAUCACCCAUGUCAUGUACAAGCUUUUUGCUCGUCUUAGAA [Mat - hsa-mir-208a - Mod of JL - D26] (puzzle: Sensor for hsa-mir-208a)	–	–	–	624	16.7	756
AUAGUUUCCGAAGGAUAUGAUGAGGAUCACCCAUCAGAAGGUUGGCUAUUGGGCUGACAUGAGGAUCACCCAUGUUCUGGUGUU (Eterna round: R96, puzzle: Same State NG 1)	39.1	33.2	57	–	–	–
GGAAUAUGAUGUUACAUGAGGAUCACCCAUGUAGUGAUAACUAAGGAUAUCUGUUAAGAUAACUAAGAGAAGGUAGGAUCAUAA [AK SSNG3-V2-8.3] (Eterna round: R96, puzzle: Same State NG 3)	49.7	44.9	55.9	–	–	–
UAAAUAAUGUAAGGAUAUACAUGAGGAAUUCUCGUAGAAGGUACAUGACAUGAGGAUCACCCAUGUAUCGCUCCGUAGAGCGUA [Mat - Same State NG 1 - JL mod - D26] (Eterna round: R96, puzzle: Same State NG 1)	288	5.78	48.8	–	–	–
GUAAGUUCGAUGCUCGUCUCUCCGUACAAACAUGAGGAUCACCCAUGUGAUCGGGCAGUAGCCCGAUCAGUAUGGCC [Xearlaxe] (puzzle: Sensor for hsa-mir-208a)	–	–	–	44	22.6	47
